Assay results published in patent US20170119790A1, “Agents, Uses and Methods” (CYTOGUIDE A/S, priority 2009, published 2017).
Where “and” joins values, the source holds several entries; their conditions need not be identical. Equal values may be shown once.

What was measured:
[1] = target: T1, CD163 on peripheral blood monocytes (Homo sapiens, UniProt Q86VB7); experiment: Quantitative flow cytometry of monocyte surface CD163 expression using different anti-CD163 mAb clones; assay type: cell-based
T1 construct: Freshly drawn peripheral whole blood samples or PBMC; endogenous in cells; host or cells: human peripheral blood monocytes, blood dendritic cells, monocyte-derived macrophages (healthy donors, buffy coats)
T1 sequence (Q86VB7 42-1156): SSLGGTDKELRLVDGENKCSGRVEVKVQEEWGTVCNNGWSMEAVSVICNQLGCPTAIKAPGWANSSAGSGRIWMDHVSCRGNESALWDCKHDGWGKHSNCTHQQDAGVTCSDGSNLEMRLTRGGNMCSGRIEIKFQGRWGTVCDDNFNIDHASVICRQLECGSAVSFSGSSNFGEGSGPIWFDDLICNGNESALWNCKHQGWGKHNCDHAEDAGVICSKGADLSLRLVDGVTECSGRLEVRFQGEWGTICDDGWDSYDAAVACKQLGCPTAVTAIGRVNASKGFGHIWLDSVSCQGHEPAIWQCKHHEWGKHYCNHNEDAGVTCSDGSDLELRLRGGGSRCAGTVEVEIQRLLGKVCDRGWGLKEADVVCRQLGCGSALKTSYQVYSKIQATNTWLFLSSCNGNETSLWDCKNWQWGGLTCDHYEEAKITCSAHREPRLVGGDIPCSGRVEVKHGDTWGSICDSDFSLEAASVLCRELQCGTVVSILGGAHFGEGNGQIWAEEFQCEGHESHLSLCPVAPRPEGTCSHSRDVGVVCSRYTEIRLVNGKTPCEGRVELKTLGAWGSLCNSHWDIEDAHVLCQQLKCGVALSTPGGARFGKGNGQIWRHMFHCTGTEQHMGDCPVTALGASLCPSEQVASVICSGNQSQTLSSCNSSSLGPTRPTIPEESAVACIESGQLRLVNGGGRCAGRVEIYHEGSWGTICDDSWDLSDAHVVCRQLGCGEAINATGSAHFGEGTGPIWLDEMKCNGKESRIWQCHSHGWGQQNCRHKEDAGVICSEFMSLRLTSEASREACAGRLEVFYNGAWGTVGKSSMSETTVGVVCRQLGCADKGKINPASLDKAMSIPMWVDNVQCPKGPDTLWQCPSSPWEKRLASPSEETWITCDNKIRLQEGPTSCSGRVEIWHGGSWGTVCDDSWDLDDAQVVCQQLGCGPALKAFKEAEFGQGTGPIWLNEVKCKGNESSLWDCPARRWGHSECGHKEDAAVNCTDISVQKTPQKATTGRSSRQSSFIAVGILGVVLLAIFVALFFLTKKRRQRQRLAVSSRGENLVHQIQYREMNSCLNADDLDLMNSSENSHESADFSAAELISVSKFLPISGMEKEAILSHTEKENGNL
Protocol: EDTA, citrate, and heparin stabilized peripheral blood samples were obtained by standard venipuncture from healthy donors in Venoject® vacutainers (Terumo Europe NV, Leuven, Belgium). Peripheral blood mononuclear cells (PBMC) were isolated from leukocyte-rich buffy coats by gradient separation centrifugation using Accuspin System Histopaque®—1077 (Sigma-Aldrich Denmark A/S, Broendby, Denmark). Buffy coats were prepared from units of whole blood (approximately 472 ml) anti-coagulated with CPD-A (Baxter, Munich, Germany) donated by healthy volunteers. Approval for the study was obtained from the regional ethical committee (j.nr. 20040068).
Freshly drawn peripheral whole blood samples or PBMC (approx. 3×10^6 cells) were stained with isotype-matched control antibody or a relevant antibody for one hour at 4° C. in the dark. When staining whole blood, erythrocytes were lysed for 15 min with 4° C. cold solution of ammonium chloride. When indirect immunofluoresence staining was required, cells were initially incubated with unconjugated primary CD163 antibody for one hour at 4° C., washed three times with D-PBS, pH 7.4, followed by incubation with goat anti-mouse-conjugated Alexa-Fluor® 488 (1:200 dilution; Molecular Probes, Invitrogen, Carlsbad, Calif., USA) for one hour at 4° C. in the dark. The stained cells were washed twice three D-PBS, pH 7.4, re-suspended in 400 μl FACSflow (Becton Dickinson, San Jose, Calif., USA), and kept on ice until analysis. All samples were analyzed using a FACSCalibur flow cytometer and compensated for spectral overlap using FlowJo for Macintosh software version 8.3 (TreeStar, San Carlos, Calif.). For CD163 density quantitation, flow cytometric estimation of antibodies bound/cell (ABCs) was performed using Quantibrite PE beads (Becton Dickinson, San Jose, Calif., USA) as recommended by the manufacturer. After the cells were stained, as detailed, a set of 4 pre-calibrated fluorescently labeled beads was used for standardization before the samples were acquired. The Quantibrite PE beads were run at the same instrument settings as the assay, and the linear regression obtained using the Quantibrite PE beads was used to convert the FL2 linear fluorescence staining of cell population into the number of (CD163) PE molecules bound per cell (ABC).

[2] = target: T2, human CD163 LKIHEK containing mutants (VKVQEE-->LKIHEK and double mutant) (Homo sapiens, UniProt Q86VB7, E71K/Q69H/V66L/V68I); experiment: Western blotting of human CD163 and knock out mutants; assay type: binding
T2 construct: a pcDNA5-FRT-humanCD163 plasmid harboring the full length human CD163 cDNA; expressed in transfected cells; host or cells: HEK 293, transient
T2 sequence (Q86VB7 42-1156 V66L/V68I/Q69H/E71K): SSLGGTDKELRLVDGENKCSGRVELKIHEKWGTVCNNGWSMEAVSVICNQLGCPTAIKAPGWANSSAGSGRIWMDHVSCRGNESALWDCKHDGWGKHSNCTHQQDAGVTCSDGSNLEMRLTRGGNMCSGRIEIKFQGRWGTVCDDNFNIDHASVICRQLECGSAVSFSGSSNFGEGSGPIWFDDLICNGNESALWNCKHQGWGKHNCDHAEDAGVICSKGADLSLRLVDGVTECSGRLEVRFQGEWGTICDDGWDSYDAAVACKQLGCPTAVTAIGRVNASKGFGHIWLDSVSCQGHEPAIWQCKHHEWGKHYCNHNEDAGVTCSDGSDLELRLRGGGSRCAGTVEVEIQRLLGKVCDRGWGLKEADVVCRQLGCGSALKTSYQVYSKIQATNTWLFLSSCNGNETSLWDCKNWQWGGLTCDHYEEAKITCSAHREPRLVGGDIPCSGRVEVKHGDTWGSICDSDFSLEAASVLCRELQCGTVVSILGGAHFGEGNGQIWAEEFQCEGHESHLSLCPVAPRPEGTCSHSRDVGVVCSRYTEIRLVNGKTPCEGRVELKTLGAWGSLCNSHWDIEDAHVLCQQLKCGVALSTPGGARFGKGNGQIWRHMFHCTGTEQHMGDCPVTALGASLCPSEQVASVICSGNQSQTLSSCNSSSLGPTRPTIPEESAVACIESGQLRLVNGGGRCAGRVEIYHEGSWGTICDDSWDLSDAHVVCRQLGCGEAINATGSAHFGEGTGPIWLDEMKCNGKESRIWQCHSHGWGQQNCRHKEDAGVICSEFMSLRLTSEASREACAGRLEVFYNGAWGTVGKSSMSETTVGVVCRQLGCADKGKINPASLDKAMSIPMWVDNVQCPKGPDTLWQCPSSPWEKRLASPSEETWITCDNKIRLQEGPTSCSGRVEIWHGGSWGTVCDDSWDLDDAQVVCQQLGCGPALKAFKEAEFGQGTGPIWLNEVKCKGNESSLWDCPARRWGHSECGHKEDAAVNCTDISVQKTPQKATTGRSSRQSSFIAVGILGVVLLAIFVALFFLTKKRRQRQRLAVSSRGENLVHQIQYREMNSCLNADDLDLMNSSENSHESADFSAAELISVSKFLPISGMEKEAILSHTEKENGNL
Source text: (§1) For the mutant generation the Site-directed Ligation Independent Mutagenesis (SLIM) method was used (1). Primers are listed in the primer table. The template for the generation of the two first mutants was a pcDNA5-FRT-humanCD163 plasmid harboring the full length human CD163 cDNA. The primers LKI FT, RT, F, and R were used to generate the mutant plasmid pcDNA5-FRT-humanCD163 (VKVQEE-->LKIHEK). The primers R60D FT, RT, F, and R were used to generate the mutant plasmid pcDNA5-FRT-humanCD163 (R60D). Generation of a double mutant was done by performing a SLIM reaction on pcDNA5-FRT-humanCD163 (VKVQEE-->LKIHEK) with the primers R60D FT, RT, F, and R.
(§2) Each cell pellet was added 1 ml lysis buffer (10 mM Tris pH 8, 140 mM NaCl, 15 mM MgSO4, 1% Triton X-100) and incubated for 15 min at 4 °C with rotation. After centrifugation for 30 min at 6000 rpm the supernatants were sterile filtered.
(§3) 90 μl of each of the supernatants were added 30 μl of 4×LDS sample buffer. 3×20 μl samples of each supernatant and 8 μl SeeBlue plus2 prestained marker were loaded on NuPage 4-12% Bis-Tris-Gels (Invitrogen, Taastrup, Denmark) and the SDS-PAGEs were run with MOPS running buffer according to instructions of the manufacturer (200 V constant for 50 min). Blotting to PVDF membranes (Invitrogen, Taastrup, Denmark) was done on an iBLOT device according to instructions of the manufacturer. […]

human CD163 R60D = target: T3, human CD163 R60D (Homo sapiens, UniProt Q86VB7, R112D); experiment: as above; assay type: binding
T3 construct: a pcDNA5-FRT-humanCD163 plasmid harboring the full length human CD163 cDNA; expressed in transfected cells; host or cells: HEK 293, transient
T3 sequence (Q86VB7 42-1156 R112D): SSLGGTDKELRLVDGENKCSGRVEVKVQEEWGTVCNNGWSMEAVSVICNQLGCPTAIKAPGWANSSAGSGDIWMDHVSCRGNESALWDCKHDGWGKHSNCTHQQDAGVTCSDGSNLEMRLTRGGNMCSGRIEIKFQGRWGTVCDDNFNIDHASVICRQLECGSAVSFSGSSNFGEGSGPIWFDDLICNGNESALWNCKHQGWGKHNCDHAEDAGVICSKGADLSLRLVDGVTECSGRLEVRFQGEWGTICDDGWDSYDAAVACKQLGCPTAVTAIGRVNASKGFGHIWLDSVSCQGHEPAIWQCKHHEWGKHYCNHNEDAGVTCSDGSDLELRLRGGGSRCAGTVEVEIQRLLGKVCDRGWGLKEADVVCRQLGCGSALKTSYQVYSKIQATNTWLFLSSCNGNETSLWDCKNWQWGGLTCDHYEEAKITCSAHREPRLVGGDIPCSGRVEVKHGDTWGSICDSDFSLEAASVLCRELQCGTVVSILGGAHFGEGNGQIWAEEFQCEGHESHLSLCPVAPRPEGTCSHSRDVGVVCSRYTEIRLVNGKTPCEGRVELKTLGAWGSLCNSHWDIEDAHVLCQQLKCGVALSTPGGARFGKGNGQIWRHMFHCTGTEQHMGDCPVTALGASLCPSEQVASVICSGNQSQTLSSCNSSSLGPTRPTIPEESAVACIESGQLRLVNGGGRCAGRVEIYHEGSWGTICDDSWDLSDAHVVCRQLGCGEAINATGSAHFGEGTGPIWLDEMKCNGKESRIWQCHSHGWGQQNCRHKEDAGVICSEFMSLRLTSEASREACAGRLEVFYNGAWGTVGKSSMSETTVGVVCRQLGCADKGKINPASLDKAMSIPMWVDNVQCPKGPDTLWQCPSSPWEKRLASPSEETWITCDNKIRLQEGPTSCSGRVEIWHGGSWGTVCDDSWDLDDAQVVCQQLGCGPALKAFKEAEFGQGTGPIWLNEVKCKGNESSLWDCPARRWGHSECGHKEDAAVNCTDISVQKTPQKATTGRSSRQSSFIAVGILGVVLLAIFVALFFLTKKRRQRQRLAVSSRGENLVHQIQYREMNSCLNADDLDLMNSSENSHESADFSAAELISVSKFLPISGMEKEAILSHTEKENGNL
Source text: as §1, §2, §3

[3] = PBMC isolated by density gradient centrifugation
[4] = Table 2, second column pair, head prints CITRATE
[5] = anticoagulant CITRATE, whole blood (Table 1, FIG. 2-3)
[6] = anticoagulant EDTA, whole blood (Table 1, FIG. 2-3)
[7] = anticoagulant HEPARIN, whole blood (Table 1, FIG. 2-3)
[8] = freshly drawn EDTA stabilized whole blood, FIG. 1

B1: MAC2-158: anti-human CD163 murine mAb, binds SRCR domain 1, IQ Products; VH SEQ ID NO: 1, VL SEQ ID NO: 2 (antibody, V domains shown)
VH: DVQLQESGPGLVKPSQSLSLTCTVTGYSITSDYAWNWIRQFPGNKLEWMGYITYSGITNYNPSLKSQISITRDTSKNQFFLQLNSVTTEDTATYYCVSGTYYFDYWGQGTTLTVSS
VL: SVVMTQTPKSLLISIGDRVTITCKASQSVSSDVAWFQQKPGQSPKPLIYYASNRYTGVPDRFTGSGYGTDFTFTISSVQAEDLAVYFCGQDYTSPRTFGGGTKLEIKRA
modifications: Mac2-158 VH; Mac2-158 VL
B1 was tested, and the “density of CD163 receptors per monocyte” value [1, 3] was 11,417, the “fraction of CD14+ monocytes stained for CD163” value [1, 3] was 81.10% and the “% CD163+ monocytes” value ([1]; Table 2, first column pair, head prints EDTA) was 84.48%. The “% CD163+ monocytes” value [1, 4] was 87.23%, the CD163 density on monocytes [1, 4] was 17700 receptors/monocyte and the “% CD163+ monocytes” value ([1]; Table 2, third column pair, head prints HEPARIN) was 83.97%. The “% CD163+ monocytes” value [1, 5] was 83.97% and 81.97%, the “CD163 density on monocytes” value [1, 5] was 17.726 and the “% CD163+ monocytes” value [1, 6] was 87.23% and 82.23%. The “CD163 density on monocytes” value [1, 6] was 17.725, the “% CD163+ monocytes” value [1, 7] was 84.43% and the CD163 density monocytes [1, 7] was 28.029. For the same molecule, the “density of CD163 receptors per monocyte” value [1, 8] was 17,725, the “fraction of peripheral blood monocytes (CD14+) recognized” value [1, 8] was 84.06% and the “proportion of circulating CD163 expressing monocytes identified” value ([1]; summary statement) was > 80%. For the same molecule, the “binding in western blot” value [2] was “No binding was detected” and the “binding in western blot” value (human CD163 R60D) was “very weak”.
